Assay results published in US20260035464A1 (STAIDSON BIOPHARMA, published 2026).
Numbering of substitutions follows the chain as printed. Blank lines part the entries; values can stand above or below the binder they belong to.

How the values were obtained:
[1] = target: T1, human BTLA (Uniprot Q7Z6A9) expressed on cells (human, UniProt Q7Z6A9 31-289); experiment: flow cytometry on huBTLA-overexpressing Expi293 cells, MFI
T1 construct: whole, on cells; also called huBTLA-overexpressing Expi293 cells
Method: Expi293 cells stably overexpressing huBTLA were incubated with the chimeric anti-BTLA antibodies 83F2 or 86B7 in PBS containing 0.5% BSA, 1 mM EDTA, and 0.1% sodium azide (FACS buffer) for 30 minutes at 4° C. The cells were washed, and then incubated with 10 nM phycoerythrin (PE) conjugated anti-Human Fc Ab (BioLegend, cat #409304) for 20 minutes at 4° C. Cells were washed and then analyzed by flow cytometry with Attune (ThermoFisher Scientific). Data were analyzed with FlowJo software. Antibody binding is represented as median fluorescence intensity (MFI).
FACS based binding assays of humanized anti-BTLA antibodies were performed as described above in Example 3.

[2] = target: T2, human BTLA extracellular domain with C-terminal 10xHis tag (human, UniProt Q7Z6A9 31-157); experiment: BLI (Octet RED96), antibody on AHC biosensor, His-tag-huBTLA in solution
T2 construct: also called HuBTLA-His; His-tag-huBTLA
T2 sequence: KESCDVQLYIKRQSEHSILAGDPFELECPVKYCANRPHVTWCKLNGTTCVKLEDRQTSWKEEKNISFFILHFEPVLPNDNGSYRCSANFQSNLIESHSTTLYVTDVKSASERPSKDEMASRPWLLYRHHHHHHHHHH
Method: (§1) The following kinetic assay was performed using anti-human IgG Fc capture (AHC) biosensors (ForteBio) in kinetics buffer (PBS, 0.1% Tween-20 and 1% bovine serum albumin): (a) antibody (2 μg/mL) for 300 sec, (b) baseline for 120 sec, (c) association with purified His-tag-huBTLA (2.5, 0.5 and 0 μg/mL) and His-tag-rhesus monkey BTLA (Sino Biologcal, cat #90250-C08H) (2.5, 0.5 and 0 μg/mL) for 420 sec and (d) dissociation for 1200 sec. Data fitting and analysis was performed with Octet data analysis software 8.0 (ForteBio) using a 1:1 binding model after Savitzky-Golay filtering.
(§2) Binding affinities (monovalent Kd) of humanized anti-BTLA antibodies were determined using Biolayer interferometry on the Octet RED96 instrument (ForteBio) as described above in Example 3, except for (c) association with His-tag-huBTLA ([…]) for 420 sec.

[3] = target: T2, human BTLA extracellular domain with …; experiment: BLI (Octet RED96), antibody on AHC biosensor, His-tag-huBTLA in solution; column head prints nM, but Koff/Kon shows the values are in M
Method: as §1, §2

[4] = target: T1, human BTLA (Uniprot Q7Z6A9) expressed …; experiment: flow cytometry blocking assay on huBTLA-overexpressing Expi293 cells, antibody titrated, soluble human HVEM-mouse IgG2a Fc detected
Method: Expi293 cells stably overexpressing huBTLA were incubated with chimeric anti-BTLA antibody 83F2 or 86B7 for 30 minutes at 4° C. The cells were washed, and then incubated with human HVEM-mouse IgG2a Fc recombinant protein (Acro Biosystems, cat #HVM-H5255) at […] concentration for 20 minutes at 4° C. The human HVEM bindings were detected by goat anti-mouse Alexa 488 secondary antibody (ThermoFisher, cat #A-11029). Cells were washed and acquired by flow cytometry with Attune. Data were analyzed with FlowJo software. BTLA binding is represented as MFI.
FACS based blocking assays of humanized anti-BTLA antibodies were performed as described above in Example 3.

[5] = target: T3, extracellular domain of human BTLA with FAS, expressed on Jurkat cells (human, UniProt Q7Z6A9 31-157; P25445 174-335, limits assumed); experiment: cell-based or functional assay
T3 sequence (looked up): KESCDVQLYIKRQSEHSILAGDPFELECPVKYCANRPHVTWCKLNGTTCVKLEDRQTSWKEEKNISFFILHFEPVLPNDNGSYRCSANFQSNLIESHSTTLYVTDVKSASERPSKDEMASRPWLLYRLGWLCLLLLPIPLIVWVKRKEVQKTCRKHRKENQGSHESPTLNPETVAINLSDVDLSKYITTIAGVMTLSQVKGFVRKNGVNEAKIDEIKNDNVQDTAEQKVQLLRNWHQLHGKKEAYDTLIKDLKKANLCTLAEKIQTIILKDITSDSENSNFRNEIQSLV

[6] = target: T1, human BTLA (Uniprot Q7Z6A9) expressed …; experiment: cell-based or functional assay
[7] = target: T1, human BTLA (Uniprot Q7Z6A9) expressed …; experiment: cell-based or functional assay; remark: listed apart in the source
[8] = target: T4, huBTLA as coated in the binding ELISA of Example 3 (tag not stated) (human, UniProt Q7Z6A9 31-157); experiment: ELISA, huBTLA coated at 0.333 ug/mL, anti-human IgG Fc-AP detection
T4 construct: Detection was with anti-human IgG Fc
T4 sequence: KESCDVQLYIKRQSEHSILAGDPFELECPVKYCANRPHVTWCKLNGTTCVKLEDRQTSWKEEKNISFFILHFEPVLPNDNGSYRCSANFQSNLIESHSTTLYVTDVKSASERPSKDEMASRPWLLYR
Method: (§3) BTLA binding of purified recombinant chimeric antibodies by ELISA: The huBTLA and rhesus monkey BTLA antigen binding ELISA was performed on the purified recombinant chimeric antibodies. Briefly, 384-well, clear flat bottom high binding plates (Corning, cat #3700) were coated overnight at 4° C. with 0.333 μg/mL of huBTLA or rhesus monkey BTLA in PBS. The following purified process was performed as described in ELISA binding assay in Example 2, except that the secondary antibody was goat anti human IgG Fc-AP (Southern Biotech, cat #2014-04).

[9] = target: T5, human BTLA extracellular domain with C-terminal mouse IgG2a Fc tag (human; mouse, UniProt Q7Z6A9 31-157); experiment: blocking ELISA, huBTLA-mIgG2a Fc coated; competitor huHVEM-His (2 ug/ml)
T5 construct: also called huBTLA with mIgG2a Fc tag; not shown: mouse IgG2a Fc, C-terminal
T5 sequence: T4 sequence
Method: HVEM blocking by purified recombinant chimeric antibodies by ELISA: Human HVEM (huHVEM) blocking ELISA was performed on purified recombinant chimeric anti-BTLA antibodies. Briefly, 384-well, clear flat bottom high binding plates (Corning, cat #3700) were coated overnight at 4° C. with 0.333 μg/mL purified huBTLA with mIgG2a Fc tag in PBS (coating solution). After removing the coating solution, the plates were blocked by adding blocking buffer and incubated at 37° C. for 1 hour. Plates were then washed 3 times with wash buffer. Serial dilution of purified chimeric antibodies in PBS were added to individual well followed by incubation at 37° C. for 1 hour. Plates were washed 3 times with wash buffer. Then 30 μL per well of 2 μg/ml human HVEM with His tag (Sino Biological, cat #10334-H08H) in assay buffer was added into the reaction and incubated for 1 hour. Plates were washed 3 times with wash buffer. Then 30 μL per well of mouse anti-his-AP (Southern Biotech, cat: 4603-04) at 1:500 dilution in ELISA diluent was added, and incubated at 37° C. for 30 min, then the plates were washed 5 times with wash buffer and developed for 30 minutes with 30 μL per well of pNPP substrate. Plates were analyzed with a Bio-TEK at 405 nm. The blocking IC₅₀ value represents the antibody concentration that inhibited 50% of huHVEM binding to coated human BTLA.

[10] = target: T6, rhesus monkey BTLA extracellular domain protein with His tag (Sino Biological, cat #90250-C08H) (rhesus monkey, UniProt G7MKA9 31-157); experiment: ELISA, rhesus monkey BTLA coated at 0.333 ug/mL, anti-human IgG Fc-AP detection
T6 construct: extracellular domain; Bought protein; also called His-tag-rhesus monkey BTLA; not shown: His tag
T6 sequence: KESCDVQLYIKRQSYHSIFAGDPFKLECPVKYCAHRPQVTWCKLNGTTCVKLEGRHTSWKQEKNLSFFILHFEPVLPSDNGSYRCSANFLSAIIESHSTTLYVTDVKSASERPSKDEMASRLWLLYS
Method: as §3

[11] = target: T4, huBTLA as coated in the binding ELISA …; experiment: ELISA, plate coated with huBTLA, detection with goat anti-human IgG Fc-AP, OD405
Method: as §3

[12] = target: T2, human BTLA extracellular domain with …; experiment: BLI (Octet RED96), antibody captured on AHC biosensor, His-tag-huBTLA in solution, 1:1 model
Method: as §1

[13] = target: T6, rhesus monkey BTLA extracellular domain …; experiment: ELISA, plate coated with rhesus monkey BTLA, detection with goat anti-human IgG Fc-AP, OD405
Method: as §3

EC50 (read off the curve) [1]: ~0.8 nM | koff [2]: 9.19e-05 s⁻¹ | kon [2]: 307000 M⁻¹ s⁻¹ | Kd [3]: 0.312 nM | IC50 (read off the curve) [4]: ~0.4 nM
B1: humanized anti-BTLA antibody SB2003-4 (antibody, V domains shown)
VH: QITLKESGPTLVKPTQTLTLTCTFSGFSLSTFGMGVSWIRQPPGKALEWLAHIYWDDDKRFNPSLKSRLTITKDTSKNQVVLTMTNMDPVDTATYYCARGNWDGETYFDYWGQGTLVTVSS
VL: DVVMTQSPLSLPVTLGQPASISCKSTQSLLDSDGKTYLNWLQQRPGQSPRSLIYLVSKLDSGVPDRFSGSGSGTDFTLKISRVEAEDVGVYYCWQGTHFPWTFGQGTKVEIK

koff [2]: 5.76e-05 s⁻¹ | kon [2]: 366000 M⁻¹ s⁻¹ | Kd [3]: 0.154 nM
B2: humanized anti-BTLA antibody SB2003-7 (antibody, V domains shown)
VH: B1 VH with I2V
VL: B1 VL with L41F

EC50 (read off the curve) [1]: ~0.8 nM | koff [2]: 9.48e-05 s⁻¹ | kon [2]: 291000 M⁻¹ s⁻¹ | Kd [3]: 0.308 nM | IC50 (read off the curve) [4]: ~0.4 nM
B3: humanized anti-BTLA antibody SB2003-3 (antibody, V domains shown)
VH: B1 VH
VL: B1 VL with L41F

koff [2]: 0.000109 s⁻¹ | kon [2]: 120000 M⁻¹ s⁻¹ | Kd [3]: 0.797 nM
B4: humanized anti-BTLA antibody SB2003-2 (antibody, V domains shown)
VH: B1 VH
VL: B1 VL with S51R

koff [2]: 8.06e-05 s⁻¹ | kon [2]: 134000 M⁻¹ s⁻¹ | Kd [3]: 0.604 nM
B5: humanized anti-BTLA antibody SB2003-6 (antibody, V domains shown)
VH: B1 VH with I2V
VL: B1 VL with S51R

koff [2]: 6.5e-05 s⁻¹ | kon [2]: 440000 M⁻¹ s⁻¹ | Kd [3]: 0.148 nM
B6: humanized anti-BTLA antibody SB2003-9 (antibody, V domains shown)
VH: B1 VH with R99H
VL: B1 VL with L41F

koff [2]: 0.000179 s⁻¹ | kon [2]: 356000 M⁻¹ s⁻¹ | Kd [3]: 0.551 nM
B7: humanized anti-BTLA antibody SB2003-10 (antibody, V domains shown)
VH: B1 VH with R99H
VL: B1 VL

koff [2]: 8.05e-05 s⁻¹ | kon [2]: 418000 M⁻¹ s⁻¹ | Kd [3]: 0.198 nM
B8: humanized anti-BTLA antibody SB2003-8 (antibody, V domains shown)
VH: B1 VH with I2V
VL: B1 VL

EC50 of inhibition of huHVEM-Fc-induced apoptosis, Jurkat-huBTLA-FAS cells (ATP luminescence) [5]: 0.117 nM | EC50 of recovery of IL-2 production, Raji-HVEM/primary human T cell coculture [6]: 2.31 nM | EC50 (read off the curve) [1]: ~0.8 nM | koff [2]: 4.99e-05 s⁻¹ | kon [2]: 384000 M⁻¹ s⁻¹ | Kd [3]: 0.128 nM | IC50 (read off the curve) [4]: ~0.4 nM
B9: humanized anti-BTLA antibody SB2003-11 (antibody, V domains shown)
VH: B1 VH with I2V, R99H
VL: B1 VL with L41F

EC50 of recovery of IL-2 production, Raji-HVEM/Jurkat-BTLA coculture [7]: 2.54 nM | EC50 [8]: 0.0482 nM | IC50 [9]: 1.04 nM | EC50 [10]: 0.057 nM | EC50 (read off the curve) [11]: ~0.3 nM | Kd [12]: 1.18 nM | koff [12]: 0.000697 s⁻¹ | kon [12]: 607000 M⁻¹ s⁻¹ | EC50 (read off the curve) [13]: ~0.4 nM
B10: chimeric anti-BTLA antibody 96F11 (antibody, V domains shown)
VH: EVQLQQSGAELVKPGASVELSCTASGFNIKDTYIYWVKQRPEQGLQWIGRIDPANGHTKYDPRFQDKATLTAEISSNTAHLQLNSLTSEDTAVYFCVRGGDHPYYVMDWWGQGTSVTVSS
VL: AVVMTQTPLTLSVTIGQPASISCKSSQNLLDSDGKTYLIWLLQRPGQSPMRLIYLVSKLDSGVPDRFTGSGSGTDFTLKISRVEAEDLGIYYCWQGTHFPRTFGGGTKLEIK
